{"source": "patent US10253078", "about": "(ZEALAND PHARMA A S, dated 2019)", "binders": {"B1": {"name": "Compound 1 (peptide)", "peptide": "H-Y[Aib]EGTFISDYSIELDKK([γGlu-Palmitoyl])HQQDFVNWLLAQGPSSGAPPPS-NH2", "SMILES": "CCCCCCCCCCCCCCCC(=O)N[C@@H](CCC(=O)NCCCC[C@H](NC(=O)[C@H](CCCCN)NC(=O)[C@H](CC(=O)O)NC(=O)[C@H](CC(C)C)NC(=O)[C@H](CCC(=O)O)NC(=O)[C@@H](NC(=O)[C@H](CO)NC(=O)[C@H](Cc1ccc(O)cc1)NC(=O)[C@H](CC(=O)O)NC(=O)[C@H](CO)NC(=O)[C@@H](NC(=O)[C@H](Cc1ccccc1)NC(=O)[C@@H](NC(=O)CNC(=O)[C@H](CCC(=O)O)NC(=O)C(C)(C)NC(=O)[C@@H](N)Cc1ccc(O)cc1)[C@@H](C)O)[C@@H](C)CC)[C@@H](C)CC)C(=O)N[C@@H](Cc1c[nH]cn1)C(=O)N[C@@H](CCC(N)=O)C(=O)N[C@@H](CCC(N)=O)C(=O)N[C@@H](CC(=O)O)C(=O)N[C@@H](Cc1ccccc1)C(=O)N[C@H](C(=O)N[C@@H](CC(N)=O)C(=O)N[C@@H](Cc1c[nH]c2ccccc12)C(=O)N[C@@H](CC(C)C)C(=O)N[C@@H](CC(C)C)C(=O)N[C@@H](C)C(=O)N[C@@H](CCC(N)=O)C(=O)NCC(=O)N1CCC[C@H]1C(=O)N[C@@H](CO)C(=O)N[C@@H](CO)C(=O)NCC(=O)N[C@@H](C)C(=O)N1CCC[C@H]1C(=O)N1CCC[C@H]1C(=O)N1CCC[C@H]1C(=O)N[C@@H](CO)C(N)=O)C(C)C)C(=O)O"}, "B2": {"name": "Compound 2 (peptide)", "peptide": "H-Y[Aib]EGTFISDYSIELDK([γGlu-Palmitoyl])IHQQDFVNWLLAQGPSSGAPPPS-NH2", "SMILES": "CCCCCCCCCCCCCCCC(=O)N[C@@H](CCC(=O)NCCCC[C@H](NC(=O)[C@H](CC(=O)O)NC(=O)[C@H](CC(C)C)NC(=O)[C@H](CCC(=O)O)NC(=O)[C@@H](NC(=O)[C@H](CO)NC(=O)[C@H](Cc1ccc(O)cc1)NC(=O)[C@H](CC(=O)O)NC(=O)[C@H](CO)NC(=O)[C@@H](NC(=O)[C@H](Cc1ccccc1)NC(=O)[C@@H](NC(=O)CNC(=O)[C@H](CCC(=O)O)NC(=O)C(C)(C)NC(=O)[C@@H](N)Cc1ccc(O)cc1)[C@@H](C)O)[C@@H](C)CC)[C@@H](C)CC)C(=O)N[C@H](C(=O)N[C@@H](Cc1c[nH]cn1)C(=O)N[C@@H](CCC(N)=O)C(=O)N[C@@H](CCC(N)=O)C(=O)N[C@@H](CC(=O)O)C(=O)N[C@@H](Cc1ccccc1)C(=O)N[C@H](C(=O)N[C@@H](CC(N)=O)C(=O)N[C@@H](Cc1c[nH]c2ccccc12)C(=O)N[C@@H](CC(C)C)C(=O)N[C@@H](CC(C)C)C(=O)N[C@@H](C)C(=O)N[C@@H](CCC(N)=O)C(=O)NCC(=O)N1CCC[C@H]1C(=O)N[C@@H](CO)C(=O)N[C@@H](CO)C(=O)NCC(=O)N[C@@H](C)C(=O)N1CCC[C@H]1C(=O)N1CCC[C@H]1C(=O)N1CCC[C@H]1C(=O)N[C@@H](CO)C(N)=O)C(C)C)[C@@H](C)CC)C(=O)O"}}, "key": {"human GIP receptor [1]": {"biological_target": "T1, human GIP receptor (human, UniProt P48546 22-466)", "T1 sequence (looked up)": "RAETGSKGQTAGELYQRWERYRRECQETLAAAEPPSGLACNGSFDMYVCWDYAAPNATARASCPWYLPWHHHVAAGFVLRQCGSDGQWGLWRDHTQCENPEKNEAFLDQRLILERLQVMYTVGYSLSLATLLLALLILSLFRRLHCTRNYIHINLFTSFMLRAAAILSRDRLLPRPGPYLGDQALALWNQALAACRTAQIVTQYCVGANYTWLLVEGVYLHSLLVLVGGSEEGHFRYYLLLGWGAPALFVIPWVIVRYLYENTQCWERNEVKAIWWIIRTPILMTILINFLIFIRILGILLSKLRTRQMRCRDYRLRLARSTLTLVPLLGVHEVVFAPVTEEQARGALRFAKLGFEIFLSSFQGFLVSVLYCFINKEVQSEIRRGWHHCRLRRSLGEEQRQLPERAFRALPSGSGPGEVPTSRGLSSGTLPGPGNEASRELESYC", "assay": "cell-based or functional assay"}, "human GIP receptor [2]": {"biological_target": "T1, human GIP receptor", "assay": "cell-based or functional assay", "remark": "listed apart in the source"}}, "note": "Starred links: 1 amine or outer side, 2 acyl side, 3 side chain; linkers in the order of their positions; H or OH if unused. Non-standard residues stand in square brackets, D forms with d. Groups on a side chain read outwards from the residue. *: point of attachment. γGlu = O=C(O)[C@H](CCC(=O)[*:2])N[*:1]; Palmitoyl = CCCCCCCCCCCCCCCC(=O)*; Aib = CC(C)(N)C(=O)O"}
{"binder": "B1", "values": [{"measurement": "EC50, hGIP-R level of cAMP (HEK293 cells expressing human GIP R)", "setting": "human GIP receptor [1]", "value": 8, "unit": "pM"}, {"measurement": "EC50 hGIP R (cAMP, HEK293 cells expressing the GIP R)", "setting": "human GIP receptor [2]", "value": 3, "unit": "pM"}]}
{"binder": "B2", "values": [{"measurement": "EC50, hGIP-R level of cAMP (HEK293 cells expressing human GIP R)", "setting": "human GIP receptor [1]", "value": 13, "unit": "pM"}, {"measurement": "EC50 hGIP R (cAMP, HEK293 cells expressing the GIP R)", "setting": "human GIP receptor [2]", "value": 8, "unit": "pM"}]}
